Results reported in patent US20140363495A1 (US Dept. of Health and Human Services, published 2014).

B1: P1172 (peptide)
peptide: ALAIVYLIAL
notes: Synthetic 10-mer, purity >90%; also called Native 432
B2: VNTR-5 (agonist) (peptide)
peptide: YLDTRPAPV
notes: Synthetic analog with substitutions at positions 1, 2 and 9; also called pVNTR5; pVNTR-5
B3: VNTR-2 (peptide)
peptide: STAPPAHGV
notes: Synthetic 9-mer; also called pVNTR2; VNTR-2 (native)
B4: VNTR-4 (peptide)
peptide: APDTRPAPG
notes: Synthetic 9-mer; also called pVNTR4; VNTR-4 (native)

These binders were tested against T1, HLA-A2 molecules on T2A2 cells (human) (assay: flow cytometry, upregulation of HLA-A2 on T2A2 cells, peptide 12.5 µg/mL).
T1 construct: whole, on cells; also called class I molecules
Experimental: *Peptides were used at a concentration of 12.5 μg/mL. ^{#}Results expressed as mean fluorescence intensity (MFI). NGEP (P703) peptide is an HLA-A2-binding peptide. CAP-7 peptide is an HLA-A3-binding CEA peptide

T2 Binding (MFI)	Binder
249	B1
245	YLAIVYLIAL [P1172(1Y)]
211	YLIALAVCQC (Synthetic 10-mer) [P1177]
299	YLIALAVCQV [P1177(10V)]
326	SLSYTNPAV (Synthetic 9-mer) [P1240]
342	YLSYTNPAV [P1240(1Y)]

What follows are binders tested against T1, HLA-A2 molecules on T2A2 cells (assay: flow cytometry, upregulation of HLA-A2 on T2A2 cells, peptide 25 µg/mL).
Experimental: *Peptides were used at a concentration of 25 μg/mL. ^{#}Results expressed as mean fluorescence intensity (MFI).

T2A2 Binding (MFI)	Binder
647	B2
169	STAPPAHNV (Synthetic 9-mer; also called pVNTR1) [VNTR-1]
166	B3
210	B4
486	YLAPPAHGV (also called pVNTR3; pVNTR-3) [VNTR-3 (agonist)]
